Reference: publication PMC11500106, “Characterization of Medusavirus encoded histones reveals nucleosome-like structures and a unique linker histone”

Target: eH1.0 (Mus musculus, UniProt P10922 1-194)
Assay: fluorescence polarization; unit inferred from the titration (0-10 uM; fitted as EC50); FP: 20 mM Tris pH 7.5, 1 mM DTT, 1 mM EDTA, room temperature, 1 h, 10 nM DNA; reconstitution: salt-gradient dialysis 2 M to 50 mM NaCl
Conditions: protein: recombinant; label: 5' 6-FAM; only one strand printed (Results call it a 35-mer)

Sequence of eH1.0 (P10922 whole entry): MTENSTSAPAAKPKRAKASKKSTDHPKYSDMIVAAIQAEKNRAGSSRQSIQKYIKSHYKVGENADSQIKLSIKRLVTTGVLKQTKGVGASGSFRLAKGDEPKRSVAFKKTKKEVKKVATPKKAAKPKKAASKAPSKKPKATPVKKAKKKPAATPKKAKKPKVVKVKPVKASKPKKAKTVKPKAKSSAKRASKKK

GCAGCTGGCACGACAGGTATGAATC (mixed) [FP 25-mer DNA]
Kd: 18.1 nM
